Assay results from article PMC1934351.
pKd: −log10 of the molar value.

Experiments:
[1] = test system: L1 repressor CI (native, untagged) (Mycobacteriophage L1); test: equilibrium binding; conditions: data not shown; EMSA in Buffer A (binding buffer composition not given in material) with 10 ug/ml BSA, ~0.1 nM 32P-labeled operator, 20 ul, 25 C for 20 min (also 32, 37, 42 C …)
[2] = molecular target: C-terminal domain (CTD) of L1 repressor CI (mycobacteriophage L1); test: cross-linking; 0.1% glutaraldehyde for 2 min after 20 min at 25°C in Buffer A, ~0.5 uM protein, SDS-10% PAGE, silver staining; monomer to dimer
[3] = molecular target: C-terminal domain (CTD) of L1 repressor CI (mycobacteriophage L1); test: SEC; analytical HPLC gel filtration (Protein Pak, Waters) in Buffer A minus PMSF; ~20 uM protein loaded; column calibrated with BSA, ovalbumin, carbonic anhydrase, lysozyme; monomer to dimer
[4] = molecular target: N-terminal histidine-tagged repressor (CI) of temperate mycobacteriophage L1 (mycobacteriophage L1); test: cross-linking; 0.1% glutaraldehyde for 2 min after 20 min at 25°C in Buffer A, ~0.5 uM protein, SDS-10% PAGE, silver staining; monomer to dimer
[5] = molecular target: N-terminal histidine-tagged repressor (CI) of temperate mycobacteriophage L1 (mycobacteriophage L1); test: SEC; analytical HPLC gel filtration (Protein Pak, Waters) in Buffer A minus PMSF; ~20 uM protein loaded; column calibrated with BSA, ovalbumin, carbonic anhydrase, lysozyme; monomer to dimer
[6] = test system: L1 repressor CI (native, untagged) (Mycobacteriophage L1); test: EMSA; conditions: EMSA in Buffer A (binding buffer composition not given in material) with 10 ug/ml BSA, ~0.1 nM 32P-labeled operator, 20 ul, 25 C for 20 min (also 32, 37, 42 C …); for pKd: 25 C, apparent Kd at 50% saturation

Chain of N-terminal histidine-tagged repressor (CI) of temperate mycobacteriophage L1 (Q05286 whole entry): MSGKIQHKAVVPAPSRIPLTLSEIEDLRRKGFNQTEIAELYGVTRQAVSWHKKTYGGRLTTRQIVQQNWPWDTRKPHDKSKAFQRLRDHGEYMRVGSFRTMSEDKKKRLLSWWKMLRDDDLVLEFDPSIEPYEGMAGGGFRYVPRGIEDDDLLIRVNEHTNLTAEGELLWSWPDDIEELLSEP

## 21 bp DNA carrying O64 operator
[1]
  binding signal (fold higher affinity than N4): 2.57

## 21 bp DNA carrying OL operator
[1]
  binding signal (affinity relative to N3 (1/2.57)): 0.389

## C-terminal domain (CTD) of L1 repressor CI (domain or fragment)
[2]
  stoichiometry N: 2
[3]
  stoichiometry N: 2

## N-terminal histidine-tagged repressor (CI) of temperate mycobacteriophage L1
[4]
  stoichiometry N: 2
[5]
  stoichiometry N: 2

## O64 (~120 bp)
[6]
  pKd: 6.85
  binding signal (fold decrease of affinity vs 25 C): 6

## OL (97 bp)
[6]
  pKd: 6.43
